What all share (test): SPR BIAcore binding of STRADα to immobilised MO25α
Test [1] has as its target T1, MO25α (R227A) (Homo sapiens, UniProt Q7RTN6+Q9Y376, R227A).
T1 construct: wild-type and mutant forms of STRADα (residues 54–431) and MO25α (residues 1–341) were expressed individually as GST fusion proteins in E. coli; GST (cleaved yes); made in house; host or cells: E. coli
T1 sequence (Q9Y376 1-341 R227A): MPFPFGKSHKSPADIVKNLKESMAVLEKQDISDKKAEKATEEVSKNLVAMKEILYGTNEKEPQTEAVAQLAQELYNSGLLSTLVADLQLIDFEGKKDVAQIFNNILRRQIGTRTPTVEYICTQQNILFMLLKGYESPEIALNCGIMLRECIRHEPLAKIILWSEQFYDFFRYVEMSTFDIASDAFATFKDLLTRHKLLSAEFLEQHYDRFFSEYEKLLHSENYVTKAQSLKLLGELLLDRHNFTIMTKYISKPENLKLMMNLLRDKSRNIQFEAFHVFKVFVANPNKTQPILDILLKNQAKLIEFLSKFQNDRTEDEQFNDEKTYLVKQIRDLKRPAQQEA
T1 sequence (Q7RTN6 59-431): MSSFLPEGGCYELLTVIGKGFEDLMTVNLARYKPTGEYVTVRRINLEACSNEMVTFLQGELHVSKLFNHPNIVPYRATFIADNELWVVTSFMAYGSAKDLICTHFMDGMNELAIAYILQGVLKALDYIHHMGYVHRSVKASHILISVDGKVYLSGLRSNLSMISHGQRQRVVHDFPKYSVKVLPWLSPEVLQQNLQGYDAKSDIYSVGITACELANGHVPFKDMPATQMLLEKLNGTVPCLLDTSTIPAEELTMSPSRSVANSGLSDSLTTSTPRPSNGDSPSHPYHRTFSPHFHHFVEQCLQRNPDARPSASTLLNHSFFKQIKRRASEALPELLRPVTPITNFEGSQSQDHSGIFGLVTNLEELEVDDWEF
On the procedure:
(§1) SPR measurements were performed using a BIAcore T100 instrument. Wild-type and mutant forms of MO25α were immobilized on a CM5 sensor chip using standard amine-coupling chemistry, and 10 mM HBS (pH 7.4) was used as the running buffer. The carboxymethyl dextran surface was activated with a 7-min injection of a 1∶1 ratio of 0.4 M 1-ethyl-3-(3-dimethylaminopropyl) carbodiimide hydrochloride (EDC)/0.1 M N-hydroxy succinimide (NHS). MO25α (5–7 µM) was coupled to the surface with a 1-min injection of protein diluted in 10 mM sodium acetate (pH 5.5). Remaining activated groups were blocked with a 7-min injection of 1 M ethanolamine (pH 8.5). MO25α was immobilised on three flow cells of a CM5 chip at densities 1,700–2,500 RU performed at 25°C, leaving one flow cell as a reference to subtract any possible nonspecific binding.
(§2) STRADα was prepared in running buffer containing 50 mM Tris (pH 7.8), 50 mM NaCl, 270 mM sucrose, 1 mM DTT, 0.005% P20, and 0.1 mg/ml BSA in the presence/absence of 100 µM ATP and 1 mM MgCl2, and injected over all four surfaces at nine concentrations of a 3-fold concentration series (5 µM to […]). Each concentration was injected in duplicate over all surfaces. Association was measured for 60 s at a flow rate of 50 µl/min, and dissociation was measured for 3 min. STRADα dissociated completely from the MO25α surfaces, thus eliminating the need for a regeneration step.
(§3) Data were analysed using Scrubber 2 (BioLogic Software) and CLAMP software. Data were double referenced to the reference surface to subtract any possible nonspecific binding and to the blank buffer injections to subtract drift of the target from surface. Data were fitted to a 1∶1 or 2∶1 binding site model where appropriate. Kinetic association (k a) and dissociation rate (k d) constants were separately determined from the BIAcore sensorgrams, and equilibrium dissociation constants (K d) were calculated as: K d1 = k d1/k a1 and K d2 = k d2/k a2. Equilibrium constants were also independently calculated from a saturation binding curve, by fitting the measured response (R) from specific binding to the following equation: R = (R max1[STRAD]/([STRAD]+K d1))+(R max2[STRAD]/([STRAD]+K d2)), where R max1 and R max2 are the relative maximal changes in response for sites 1 and 2, respectively, and K d1 and K d2 are the equilibrium dissociation constants for sites 1 and 2, respectively. Dose-response curves for calculating the Hill slope (H) of the data were fitted with the following equation: R = minimum+(maximum−minimum)/(1+10^((logEC50−[STRAD])×H)) using GraphPad-PRISM software.

In test [2] the target is T2, MO25α (M260A) (Homo sapiens, UniProt Q7RTN6+Q9Y376, M260A).
T2 construct: wild-type and mutant forms of STRADα (residues 54–431) and MO25α (residues 1–341) were expressed individually as GST fusion proteins in E. coli; GST (cleaved yes); made in house; host or cells: E. coli
T2 sequence (Q9Y376 1-341 M260A): T1 sequence (Q9Y376 1-341 R227A) with A227R, M260A
T2 sequence (Q7RTN6 59-431): T1 sequence (Q7RTN6 59-431)
On the procedure: as §1, §2, §3

Test [3] addresses T3, MO25α (WT) (Homo sapiens, UniProt Q7RTN6+Q9Y376).
T3 construct: wild-type and mutant forms of STRADα (residues 54–431) and MO25α (residues 1–341) were expressed individually as GST fusion proteins in E. coli; GST (cleaved yes); made in house; host or cells: E. coli (STRADα: BL21(DE3)pLysS, co-expressed with MO25α and then separated from it)
T3 sequence (Q9Y376 1-341): T1 sequence (Q9Y376 1-341 R227A) with A227R
T3 sequence (Q7RTN6 59-431): T1 sequence (Q7RTN6 59-431)
The method, then: as §1, §2, §3

Test [4] has as its target T4, MO25α (R227A/M260A) (Homo sapiens, UniProt Q9Y376, M260A/R227A).
T4 construct: wild-type and mutant forms of STRADα (residues 54–431) and MO25α (residues 1–341) were expressed individually as GST fusion proteins in E. coli; GST (cleaved yes); made in house; host or cells: E. coli
To be noted: even in the presence of ATP. The method, then:
as §1, §2, §3

Numbering of substitutions follows the chain as printed. Where two headings read alike, the source gives them in different places.

T4 sequence (Q9Y376 whole entry R227A/M260A, one chain of several, the tested form may be a part): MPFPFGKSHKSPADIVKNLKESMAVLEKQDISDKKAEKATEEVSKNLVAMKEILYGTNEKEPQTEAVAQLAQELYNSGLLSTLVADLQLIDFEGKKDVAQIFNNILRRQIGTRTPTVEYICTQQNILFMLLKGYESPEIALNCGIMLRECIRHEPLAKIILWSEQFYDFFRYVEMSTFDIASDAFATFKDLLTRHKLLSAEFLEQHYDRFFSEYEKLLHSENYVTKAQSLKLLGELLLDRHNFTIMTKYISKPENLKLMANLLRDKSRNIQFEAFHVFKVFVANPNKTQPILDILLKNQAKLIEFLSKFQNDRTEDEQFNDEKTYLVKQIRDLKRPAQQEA

B1: STRADα: STRADα pseudokinase (residues 59–431), His tag removed, analyte injected over immobilised MO25α in SPR (protein)
chain: T1 sequence (Q7RTN6 59-431)
modifications: left off: His6 with TEV site (…), N-terminal, cleaved
notes: STRADα pseudokinase (residues 59–431), His tag removed, analyte injected over immobilised MO25α in SPR
Consider B1, for which the kd1 is reported as 0.72 (2.0 × 10−3) s−1 in test [1] (+ ATP + Mg2+); 0.43 (1.7 × 10−3) s−1 in test [2] (+ ATP + Mg2+); 0.92 (3.0 × 10−3) s−1 in test [2] (no ATP); 0.43 (1.4 × 10−3) s−1 in test [3] (+ ATP + Mg2+); 0.63 (3.0 × 10−3) s−1 in test [3] (no ATP). Besides, the “binding of STRADα observed by SPR” value in test [1] (in the absence of ATP) is recorded as “virtually abolished binding”. Also, the kd2 was 0.05 (2.3 × 10−4) s−1 in test [2] (+ ATP + Mg2+) and 0.04 (8.8 × 10−5) s−1 in test [3] (+ ATP + Mg2+). Also, the Kd is 2500 nM in test [3] (+ 0.1 mM ATP, Kd = kd/ka, read-out: Kd1); 12 nM in test [3] (in the presence of ATP, read-out: second binding constant (Kd2)); 3800 nM in test [3] (no ATP, Kd = kd/ka, read-out: Kd1). In addition, in test [3] (in the presence of ATP, two-site binding), the Hill slope was 0.4. Moreover, the “interaction with STRADα” value in test [4] is “failed to interact”.

Source of the values: publication PMC2686265, “ATP and MO25α Regulate the Conformational State of the STRADα Pseudokinase and Activation of the LKB1 Tumour Suppressor” (PLoS Biology, 2009).
